In this experiment the target is Ssl1 (S. sviceus laccase 1), small two-domain laccase from Streptomyces sviceus, without the twin-arginine signal peptide (Streptomyces sviceus). Briefly: SEC-MALS; Superdex 200 10/300 GL, 0.5 mL/min, 50 mM potassium phosphate pH 7.5; 100 µL of Ssl1 at 7.5 mg/mL injected; multi-angle static light scattering with refractometer. (SEC sorts molecules by how far they enter the pores of the column.)

The stoichiometry N is a count of units in the complex or per binding partner. Substance “Ssl1 (S. sviceus laccase 1), small two-domain laccase from Streptomyces sviceus, without the twin-arginine signal peptide (enzyme)” displayed a stoichiometry N of 3.
